# Results published in US20260209386A1 (MYTHIC THERAPEUTICS, published 2026).
# Substitutions are numbered along the chain they refer to.
# B1: MYT11258 (antibody, V domains shown)
# VH: EVQLVESGGGLVQPGGSLRLSCTASGIDLHRYSMGWVRQAPGKGLEWVGIISYGGSTYYASWAKGRFTISRDTSKNTVYLQMNSLRAEDTAVYFCARVGYPGYSGYGYAFDAFDPWGQGTLVTVSS
# VL: EIVMTQSPSTLSASVGDRVIITCQSSKSVYNDNWLSWYQQKPGKAPKLLIYGASTLASGVPSRFSGSGSGAEFTLTISSLQPDDFATYYCAGGYSSSSDNGFGQGTKLTVL
# notes: IgG
# B2: MYT11279 (antibody, V domains shown)
# VH: B1 VH with H30S, G65H
# VL: B1 VL
# notes: IgG
# B3: MYT11322 (antibody, V domains shown)
# VH: B1 VH with H30S
# VL: B1 VL with A57H
# notes: IgG
# B4: MYT11267 (antibody, V domains shown)
# VH: B1 VH with H30S, Y53H
# VL: B1 VL
# notes: IgG
# B5: MYT11263 (antibody, V domains shown)
# VH: B1 VH with H30S, G35H
# VL: B1 VL
# notes: IgG
# B6: MYT11289 (antibody, V domains shown)
# VH: B1 VH with H30S, G105H
# VL: B1 VL
# notes: IgG
# B7: MYT11285 (antibody, V domains shown)
# VH: B1 VH with H30S, P101H
# VL: B1 VL
# notes: IgG
# B8: MYT11272 (antibody, V domains shown)
# VH: B1 VH with H30S, Y58H
# VL: B1 VL
# notes: IgG
# B9: MYT11309 (antibody, V domains shown)
# VH: B1 VH with H30S
# VL: B1 VL with V29H
# notes: IgG
# B10: MYT11349 (antibody, V domains shown)
# VH: EVQLVESGGGLVQPGGSLRLSCTASGIDLSNYAVIWVRQAPGKGLEWVGHIYTYDTTYYANWAKGRFTISRDTSKNTVYLQMNSLRAEDTAVYFCARSFSDISDLIKLWGQGTLVTVSS
# VL: EIVMTQSPSTLSASVGDRVIITCQASQSLYNNKDLAWYQQKPGKAPKLLIYEASKLASGVPSRFSGSGSGAEFTLTISSLQPDDFATYYCLGEFSCGSGDCLAFGQGTKLTVL
# notes: IgG
# B11: MYT11354 (antibody, V domains shown)
# VH: B10 VH with H50I, D55H
# VL: B10 VL
# notes: IgG
# B12: MYT11356 (antibody, V domains shown)
# VH: B10 VH with H50I, T57H
# VL: B10 VL
# notes: IgG
# B13: MYT11392 (antibody, V domains shown)
# VH: B10 VH with H50I
# VL: B10 VL with K33H
# notes: IgG
# B14: MYT11355 (antibody, V domains shown)
# VH: B10 VH with H50I, T56H
# VL: B10 VL
# notes: IgG
# B15: MYT11376 (antibody, V domains shown)
# VH: B10 VH with H50I, K107H
# VL: B10 VL
# notes: IgG
# B16: MYT11369 (antibody, V domains shown)
# VH: B10 VH with H50I, S100H
# VL: B10 VL
# notes: IgG
# B17: MYT11352 (antibody, V domains shown)
# VH: B10 VH with H50I, T53H
# VL: B10 VL
# notes: IgG
# B18: MYT11363 (antibody, V domains shown)
# VH: B10 VH with H50I, K64H
# VL: B10 VL
# notes: IgG
# B19: MYT11390 (antibody, V domains shown)
# VH: B10 VH with H50I
# VL: B10 VL with N31H
# notes: IgG
# B20: MYT11357 (antibody, V domains shown)
# VH: B10 VH with H50I, Y58H
# VL: B10 VL
# notes: IgG
# B21: MYT11195 (antibody, V domains shown)
# VH: EVQLVESGGGLVQPGGSLRLSCTASGIDLSSYVMGWVRQAPGKGLEWVGYIYGGHGTYYATWARGRFTISRDTSKNTVYLQMNSLRAEDTAVYFCARAAADFYFNLWGQGTLVTVSS
# VL: EIVMTQSPSTLSASVGDRVIITCQASQSISSYLAWYQQKPGKAPKLLIYDISDLASGVPSRFSGSGSGAEFTLTISSLQPDDFATYYCQSYYWISNSGAAFGQGTKLTVL
# notes: IgG
# B22: MYT11247 (antibody, V domains shown)
# VH: B21 VH with H55G
# VL: B21 VL with G98H
# notes: IgG
# B23: MYT11249 (antibody, V domains shown)
# VH: B21 VH with H55G
# VL: B21 VL with A100H
# notes: IgG
# B24: MYT11238 (antibody, V domains shown)
# VH: B21 VH with H55G
# VL: B21 VL with Q89H
# notes: IgG
# B25: MYT11197 (antibody, V domains shown)
# VH: B21 VH with H55G, T57H
# VL: B21 VL
# notes: IgG
# B26: MYT11248 (antibody, V domains shown)
# VH: B21 VH with H55G
# VL: B21 VL with A99H
# notes: IgG
# B27: MYT11210 (antibody, V domains shown)
# VH: B21 VH with H55G, A100H
# VL: B21 VL
# notes: IgG
# B28: MYT11196 (antibody, V domains shown)
# VH: B21 VH with H55G, G56H
# VL: B21 VL
# notes: IgG
# B29: MYT11246 (antibody, V domains shown)
# VH: B21 VH with H55G
# VL: B21 VL with S97H
# notes: IgG
# B30: MYT11236 (antibody, V domains shown)
# VH: B21 VH with H55G
# VL: B21 VL with A55H
# notes: IgG
# B31: MYT11225 (antibody, V domains shown)
# VH: B21 VH with H55G
# VL: B21 VL with I29H
# notes: IgG
# B32: MYT11244 (antibody, V domains shown)
# VH: B21 VH with H55G
# VL: B21 VL with S95H
# notes: IgG
# B33: MYT11213 (antibody, V domains shown)
# VH: B21 VH with H55G, Y103H
# VL: B21 VL
# notes: IgG
# B34: MYT11229 (antibody, V domains shown)
# VH: B21 VH with H55G
# VL: B21 VL with L33H
# notes: IgG
# B35: MYT11224 (antibody, V domains shown)
# VH: B21 VH with H55G
# VL: B21 VL with S28H
# notes: IgG
# B36: MYT11222 (antibody, V domains shown)
# VH: B21 VH with H55G
# VL: B21 VL with S26H
# notes: IgG
# B37: MYT11240 (antibody, V domains shown)
# VH: B21 VH with H55G
# VL: B21 VL with Y91H
# notes: IgG
# B38: MYT11221 (antibody, V domains shown)
# VH: B21 VH with H55G
# VL: B21 VL with A25H
# notes: IgG
# B39: MYT11245 (antibody, V domains shown)
# VH: B21 VH with H55G
# VL: B21 VL with N96H
# notes: IgG
# Molecular target: T1, Human PTK7/CCK4 Protein, His Tag, Acro Biosystems PT7-H52H3 (human, UniProt Q13308 31-704)
# T1 construct: bought protein; also called Human PTK7 Protein, His Tag, Acro Biosystems; not shown: His tag
# T1 sequence: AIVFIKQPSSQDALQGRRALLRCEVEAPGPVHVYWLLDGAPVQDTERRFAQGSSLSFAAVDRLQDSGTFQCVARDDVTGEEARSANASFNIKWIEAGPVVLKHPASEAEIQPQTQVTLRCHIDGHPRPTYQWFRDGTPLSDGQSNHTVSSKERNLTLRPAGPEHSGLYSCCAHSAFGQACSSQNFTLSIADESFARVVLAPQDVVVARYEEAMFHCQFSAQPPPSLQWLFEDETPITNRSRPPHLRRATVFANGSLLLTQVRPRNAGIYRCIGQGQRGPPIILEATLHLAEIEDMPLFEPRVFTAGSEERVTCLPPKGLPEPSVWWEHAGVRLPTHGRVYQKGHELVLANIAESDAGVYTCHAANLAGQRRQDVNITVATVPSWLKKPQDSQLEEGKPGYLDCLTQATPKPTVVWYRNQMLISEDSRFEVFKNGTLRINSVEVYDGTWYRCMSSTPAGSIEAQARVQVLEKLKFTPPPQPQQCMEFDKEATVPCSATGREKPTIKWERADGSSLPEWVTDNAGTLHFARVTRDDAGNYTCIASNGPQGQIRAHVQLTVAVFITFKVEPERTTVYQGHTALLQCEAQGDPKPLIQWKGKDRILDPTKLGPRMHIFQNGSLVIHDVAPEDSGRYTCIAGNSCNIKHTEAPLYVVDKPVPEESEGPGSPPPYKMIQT
# Assay: BLI, antibody on anti-human Fc sensor, 50 nM PTK7
row,Binder,binding result
1,B1,binds
2,B2,binds
3,B3,binds
4,B4,binds
5,B5,binds
6,B6,binds
7,B7,binds
8,B8,binds
9,B9,binds
10,B10,binds
11,B11,binds
12,B12,binds
13,B13,binds
14,B14,binds
15,B15,binds
16,B16,binds
17,B17,binds
18,B18,binds
19,B19,binds
20,B20,binds

row,Binder,binding result
1,B21,binds
2,B22,binds
3,B23,binds
4,B24,binds
5,B25,binds
6,B26,binds
7,B27,binds
8,B28,binds
9,B29,binds
10,B30,binds
11,B31,binds
12,B32,binds
13,B33,binds
14,B34,binds
15,B35,binds
16,B36,binds
17,B37,binds
18,B38,binds
19,B39,binds
